How the values were obtained:
5-hydroxy-L-norvaline [1] = assay: Enzyme assay, aminotransferase (step A4), cell lysates; assay type: biochemical; design: key: +: measureable activity detected in the assay; −: no measurable activity detected in the assay; conditions: BDO biosynthetic pathway step A4
Experimental: (§1) Enzyme expression and crude lysate preparation. The enzymatic activity of each candidate enzyme is evaluated, first in E. coli and subsequently in C. glutamicum. It will be apparent to one of skill in the art that the expression and lysate preparations may need to be modified depending on the host cell and recombinant gene of interest.
(§2) E. coli: E. coli strains transformed with expression clones, for example, pUC18 or MB4124 based clones having a medium strong constitutive promoter regulating the recombinant gene of interest, are grown aerobically in LB medium (Difco) containing the appropriate antibiotic(s). At an OD600 of 0.5, IPTG is added to a final concentration of 0.25 mM. The cultures are grown to a final OD600 of 1.5 at which time the cells are collected and harvested by centrifugation. Cell pellets are resuspended in BugBuster (Novagen) reagent containing benzonase and lysozyme. Alternatively, E. coli strains transformed with expression clones, are grown overnight aerobically at 37° C. in BHI containing the appropriate antibiotic(s). 300 μL of fresh overnight culture is used to inoculate 2.7 mL BHI containing 0.25 mM IPTG and the appropriate antibiotic. The cultures are grown aerobically for 4-5 hours at 37° C. at which time the cells are collected and harvested by centrifugation. Cell pellets are frozen at −80° C. for at least 15 minutes, then thawed and resuspended in BugBuster (Novagen) reagent. Lysis and lysate collection are performed according to the manufacturer's instructions and, for example, may involve use of a sonicator and/or French press. Cleared lysates are stored on ice until enzyme assays are performed.
C. glutamicum: C. glutamicum strains transformed with MB4124 expression clones containing the recombinant gene of interest are grown aerobically in BHI broth supplemented with the proper antibiotic(s). At an OD600 of 0.5, IPTG is added to a final concentration of 0.25 mM. The cultures are grown to a final OD600 of 1.5 at which time the cells are collected and harvested by centrifugation. The pellet is washed once in one volume of water and resuspended in lysis buffer (1.0 ml 1.0 M HEPES buffer, pH 7.5, 0.5 ml 1M KOH, 10 μl 0.5M EDTA, protease inhibitor cocktail, water to 5 ml; the final pH will vary depending on the individual enzyme being tested) and one volume of 0.1 mm acid washed glass beads. The mixture is repeatedly alternately vortexed and held on ice for 15 seconds, eight times. After centrifugation for 5 min at 4,000 rpm, the supernatant lysate is removed and respun for 20 min at 10,000 rpm. Alternatively, C. glutamicum strains transformed with MB4124 expression clones containing the recombinant gene of interest are grown aerobically overnight in BHI broth supplemented with the proper antibiotic(s). Five mL of fresh overnight culture is used to inoculate 200 mL BHI containing 0.25 mM IPTG and the appropriate antibiotic. The cultures are grown aerobically at 30° C. for 5-7 hours at which time the cells are collected and harvested by centrifugation at 4° C. The pellet is resuspended in 15 mL ice cold 39 mM KH2PO4, 61 mM K2HPO4, 0.5 M KCl and lysed using a BioSpec BeadBeater and following the manufacturer's instructions. […]
(§3) Protein Assays. Protein concentrations in lysates are determined according to the methods of Bradford et al. (Anal. Biochem. 72:248-254 [1976]) or by the method of Smith et al. (Anal. Biochem. 150(1):76-85 [1985]) and lysates are assayed according to the methods below. […]

5-hydroxy-L-norvaline [2] = assay: In vitro substrate conversion assay, step A4; assay type: biochemical; design: key: +: measureable activity detected in the assay; −: no measurable activity detected in the assay; conditions: BDO biosynthetic pathway step A4
Experimental: (§4) In Vitro Substrate Conversion. Most of the enzyme assays described above are based on recording changes in absorbance at a given wavelength. In addition to such spectrophotometric readouts, these assays can also be analyzed by more direct methods using an endpoint assay where the reaction is terminated after a given period of time and the mixture is analyzed via HPLC or LC-MS methods.
(§5) The aldehyde dehydrogenase linked reaction was used for step A5.

5-hydroxy-L-norvaline [3] = assay: Bioconversion (feeding) assay, step A4; assay type: cell-based; design: key: +: measureable activity detected in the assay; −: no measurable activity detected in the assay; conditions: BDO biosynthetic pathway step A4
Experimental: (§6) Bioconversion assays. The activity of a candidate enzyme towards a given substrate can also be evaluated in vivo using a simple feeding assay. A strain expressing the candidate enzyme is grown in the presence of the substrate for which activity is desired. Samples of the culture are removed periodically and the cells are removed via centrifugation. The culture supernatant is then analyzed (e.g., by LC-MS) to determine how much of the substrate has been removed and how much of a given product is present.
as §5

[4] = system: 5-hydroxy-2-oxopentanoate (5-HOP); assay: Kinetics of purified His-tagged KdcAL1 on 5-HOP (aldehyde dehydrogenase linked reaction); assay type: biochemical
Experimental: (§7) Aldehyde Dehydrogenase linked reaction: In another example of a coupled assay, the decarboxylation of a substrate is linked to the activity of an aldehyde dehydrogenase (Sigma catalog number A6338) reaction that converts the aldehyde product to a carboxylic acid with the concomitant reduction of NAD+. The overall activity of the coupled reactions is assessed spectrophotometrically by measuring the increase in absorbance at 340 nm which corresponds to the NAD+ reduction. One enzyme unit is defined as the amount of enzyme that catalyzes the decarboxylation of 1 μmol of substrate per minute.
(§8) Standard molecular biology techniques were used to create an E. coli expression construct encoding KdcAL1 having three histidine (His) residues attached to its C-terminus. This His-tagged enzyme was over-expressed in E. coli, purified and assayed to assess its activity towards a natural substrate, 3-methyl-2-oxopentanoate (3-MOP) and its BDO pathway substrate, 5-hydroxy-2-oxopentanoate (5-HOP). The purified enzyme was assayed as described in example 3 above (step A5, Aldehyde dehydrogenase linked reaction). […] This Vmax is about 10 times lower than the rate of 3-MOP activity.

[5] = system: 5-hydroxy-2-oxopentanoate; assay: In vitro substrate conversion assay, step A5; assay type: biochemical; design: key: +: measureable activity detected in the assay; −: no measurable activity detected in the assay; conditions: BDO biosynthetic pathway step A5
Experimental: as §4, §5

[6] = system: 5-hydroxy-2-oxopentanoate; assay: Bioconversion (feeding) assay, step A5; assay type: cell-based; design: key: +: measureable activity detected in the assay; −: no measurable activity detected in the assay; conditions: BDO biosynthetic pathway step A5
Experimental: as §6, §5

[7] = system: 5-hydroxy-2-oxopentanoate; assay: Enzyme assay, decarboxylase (step A5), aldehyde dehydrogenase linked reaction; assay type: biochemical; design: key: +: measureable activity detected in the assay; −: no measurable activity detected in the assay; conditions: BDO biosynthetic pathway step A5
Summary of the method: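 Crude lysates of E. coli or C. glutamicum expressing the candidate decarboxylase (0.25 mM IPTG induction) were assayed against vector-only control lysates, using natural substrate and pathway metabolite. Decarboxylation was coupled to aldehyde dehydrogenase converting the aldehyde product to acid with NAD+ reduction, followed as absorbance increase at 340 nm.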

[8] = system: 3-methyl-2-oxopentanoate (3-MOP); assay: Kinetics of purified His-tagged KdcAL1 on 3-MOP (aldehyde dehydrogenase linked reaction); assay type: biochemical; conditions: substrate 3-MOP; purified His-tagged enzyme
Experimental: as §7, §8

4-hydroxybutanal [9] = assay: Bioconversion (feeding) assay, step A6; assay type: cell-based; design: key: +: measureable activity detected in the assay; −: no measurable activity detected in the assay; conditions: BDO biosynthetic pathway step A6
Experimental: as §6, §5

4-hydroxybutanal [10] = assay: Enzyme assay, oxidoreductase (step A6), cell lysates; assay type: biochemical; design: key: +: measureable activity detected in the assay; −: no measurable activity detected in the assay; conditions: BDO biosynthetic pathway step A6
Experimental: as §1
as §2, with “performed. […]” for “performed.”
as §3

4-hydroxybutanal [11] = assay: In vitro substrate conversion assay, step A6; assay type: biochemical; design: key: +: measureable activity detected in the assay; −: no measurable activity detected in the assay; conditions: BDO biosynthetic pathway step A6
Experimental: as §4, §5

B1: BcaTPf: Branched-chain-amino-acid transaminase from Pseudomonas fluorescens, step A4 enzyme candidate, SEQ ID NO. 58 (protein, listed as Pseudomonas fluorescens)
chain: MGNESINWDKLGFDYIKTDKRFLQVWKNGEWQEGTLTDDNVLHISEGSTALHYGQQCFEGLKAYRCKDGSINLFRPDQNAARMQRSCARLLMPHVPTDVFIDACKQVVKANEHFIPPYGSGGALYLRPFVIGTGDNIGVRTAPEFIFSVFCIPVGAYFKGGLVPHNFQISTFDRAAPQGTGAAKVGGNYAASLMPGSEAKKAGFADAIYLDPMTHSKIEEVGSANFFGITHDNQFITPKSPSVLPGITRLSLIELAKTRLGLDVVEGEVFIDKLDQFKEAGACGTAAVISPIGGIQYNGKLHVFHSETEVGPITQKLYKELTGVQTGDVEAPQGWIVKV
B1 was tested, and the “Enzyme Assay” value (5-hydroxy-L-norvaline [1]) was “+”, the “In Vitro Substrate Conversion Assay” value (5-hydroxy-L-norvaline [2]) was “+” and the “Bioconversion Assay” value (5-hydroxy-L-norvaline [3]) was “+”.

B2: KdcALl: Branched-chain alpha-keto acid decarboxylase from Lactococcus lactis, step A5 enzyme candidate, SEQ ID NO. 36; His-tagged when purified (protein, listed as Lactococcus lactis)
chain: MYTVGDYLLDRLHELGIEEIFGVPGDYNLQFLDQIISREDMKWIGNANELNASYMADGYARTKKAAAFLTTFGVGELSAINGLAGSYAENLPVVEIVGSPTSKVQNDGKFVHHTLADGDFKHFMKMHEPVTAARTLLTAENATYEIDRVLSQLLKERKPVYINLPVDVAAAKAEKPALSLEKESSTTNTTEQVILSKIEESLKNAQKPVVIAGHEVISFGLEKTVTQFVSETKLPITTLNFGKSAVDESLPSFLGIYNGKLSEISLKNFVESADFILMLGVKLTDSSTGAFTHHLDENKMISLNIDEGIIFNKVVEDFDFRAVVSSLSELKGIEYEGQYIDKQYEEFIPSSAPLSQDRLWQAVESLTQSNETIVAEQGTSFFGASTIFLKSNSRFIGQPLWGSIGYTFPAALGSQIADKESRHLLFIGDGSLQLTVQELGLSIREKLNPICFIINNDGYTVEREIHGPTQSYNDIPMWNYSKLPETFGATEDRVVSKIVRTENEFVSVMKEAQADVNRMYWIELVLEKEDAPKLLKKMGKLFAEQNK
modifications: His-tag when purified
With B2 the “Vmax for 5-HOP lower than the rate of 3-MOP activity” value ([4]; 5-HOP versus 3-MOP) was “about 10 times”, the Km ([4]; substrate 5-HOP, purified His-tagged enzyme) was 49 mM and the Vmax ([4]; substrate 5-HOP, purified His-tagged enzyme, FIG. 24) was “approximately 0.15 U/mg”. The “In Vitro Substrate Conversion Assay” value [5] was “+”, the “Bioconversion Assay” value [6] was “+” and the “Enzyme Assay” value [7] was “+”. The Km [8] was 1.3 mM.

B3: ADH6Sc: Alcohol dehydrogenase from Saccharomyces cerevisiae, step A6 enzyme candidate, SEQ ID NO. 47 (protein, listed as Saccharomyces cerevisiae)
chain: MSYPEKFEGIAIQSHEDWKNPKKTKYDPKPFYDHDIDIKIEACGVCGSDIHCAAGHWGNMKMPLVVGHEIVGKVVKLGPKSNSGLKVGQRVGVGAQVFSCLECDRCKNDNEPYCTKFVTTYSQPYEDGYVSQGGYANYVRVHEHFVVPIPENIPSHLAAPLLCGGLTVYSPLVRNGCGPGKKVGIVGLGGIGSMGTLISKAMGAETYVISRSSRKREDAMKMGADHYIATLEEGDWGEKYFDTFDLIVVCASSLTDIDFNIMPKAMKVGGRIVSISIPEQHEMLSLKPYGLKAVSISYSALGSIKELNQLLKLVSEKDIKIWVETLPVGEAGVHEAFERMEKGDVRYRFTLVGYDKEFSD
With B3 the “Bioconversion Assay” value (4-hydroxybutanal [9]) was “+”, the “Enzyme Assay” value (4-hydroxybutanal [10]) was “+” and the “In Vitro Substrate Conversion Assay” value (4-hydroxybutanal [11]) was “+”.
